Data as given in patent publication US20260125454A1 (SHANGHAI JUNSHI BIOSCIENCES, published 2026).

T1: Biotin-huCGRPaSA (human, not fully specified; biotin (position not given))
T1 construct: exact construct ('aSA') not explained; also called Biotin CGRPaSA; full-length (1-37) CGRP
T1 peptide: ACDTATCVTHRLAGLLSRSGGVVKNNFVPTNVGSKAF

B1: hu134 (antibody, V domains shown)
VH: QVQLVQSGAEVKKPGASVKVSCKASGYTFTDYNMHWVRQAPGQGLEWMGNIYPYNAGTVYNQKFNNRVTLTVDTSSSTAYMELSRLRSDDTAVYYCAREGLGGYWGQGTLVTVSS
VL: DIQLTQSPSFLSASVGDRVTITCKASQNIDYDGYAYLNWYQQKPGKAPKVLIYSVFNLESGVPSRFSGSGSGTEFTLTISSLQPEDFATYYCQQSNEFPYTFGQGTKLEIK
notes: 2B8 HC1-3/1A2 LC2-4
B2: hu218 (antibody, V domains shown)
VH: QVQLVQSGAEVKKPGASVKVSCKASGYTFTDYNMHWVRQAPGQGLEWMGYIYPYNGHTVYNQKFRNRVTLTVDTSSSTAYMELRSLRSDDTAVYYCAREGLGGYWGQGTLVTVSS
VL: DVQLTQSPSFLSASVGDRVTITCQASQNIDGNTYMNWYQQKPGKAPKVLIYSIFNLESGVPSRFSGSGSGTEFTLTISSLQPEDFATYYCQQSNDYPYTFGQGTKLEIK
notes: 3H10 HC-2/2B8 LC2-2
B3: hu186 (antibody, V domains shown)
VH: QVQLVQSGAEVKKPGASVKVSCKTSGYTFTDYNMHWVRQAPGQRLEWMGYISPYNAGTAYNQKFKFRVTLTVDTSSSTAYMELSSLRSEDTAVYYCAREGLGGYWGQGTLVTVSS
VL: DIQLTQSPSFLSASVGDRVTITCKASQNIDYDGYAYLNWYQQKPGKAPKVLIYSVFNLESGVPSRFSGSGSGTEFTLTISSLQPEDFATYYCQQSNEFPYTFGQGTKLEIK
notes: 3E5 HC-4/1A2 LC2-4
B4: hu173 (antibody, V domains shown)
VH: QVQLVQSGAEVKKPGASVKVSCKASGYTFTDYNMHWVRQAPGQGLEWMGYISPYNGGTAYNQKFKFRVTLTVDTSSSTAYMELSRLRSDDTVVYYCAREGLGGYWGQGTLVTVSS
VL: DIQLTQSPSFLSASVGDRVTITCKASQNIDYDGYAYLNWYQQKPGKAPKVLIYSVFNLESGVPSRFSGSGSGTEFTLTISSLQPEDFATYYCQQSNEFPYTFGQGTKLEIK
notes: 3E5 HC-3/1A2 LC2-4
B5: hu160 (antibody, V domains shown)
VH: QVQLVQSGAEVKKPGASVKVSCKASGYTFTDYNMHWVRQAPGQRLEWMGYISPYNGGTAYNQKFKFRVTLTVDTSSSTAYMELSSLRSEDTAVYYCAREGLGGYWGQGTLVTVSS
VL: DIQLTQSPSFLSASVGDRVTITCKASQNIDYDGYAYLNWYQQKPGKAPKVLIYSVFNLESGVPSRFSGSGSGTEFTLTISSLQPEDFATYYCQQSNEFPYTFGQGTKLEIK
notes: 3E5 HC-2/1A2 LC2-4
B6: hu49 (antibody, V domains shown)
VH: QVQLVQSGAEVKKPGASVKVSCKASGYTFTDFNMHWVRQAPGQRLEWMGYIYPYNGDVVYNQNFTNRVTLTVDTSSSTAYMELSSLRSEDTAVYYCAREGLGGYWGQGTLVTVSS
VL: DVQLTQSPSFLSASVGDRVTITCQASQNIDGNTYMNWYQQKPGKAPKVLIYSIFNLESGVPSRFSGSGSGTEFTLTISSLQPEDFATYYCQQSNDYPYTFGQGTKLEIK
notes: 1F5 HC-2/2B8 LC2-2
B7: hu114 (antibody, V domains shown)
VH: QVQLVQSGAEVKKPGASVKVSCKASGYTFTDYNMHWVRQAPGQGLEWMGNIYPYNGGTVYNQKFNNRVTLTVDTSSSTAYMELSRLRSDDTAVYYCAREGLGGYWGQGTLVTVSS
VL: DVQLTQSPSFLSASVGDRVTITCQASQNIDGNTYMNWYQQKPGKAPKVLIYSIFNLESGVPSRFSGSGSGTEFTLTISSLQPEDFATYYCQQSNDYPYTFGQGTKLEIK
notes: 2B8 HC1-1/2B8 LC2-2
B8: hu36 (antibody, V domains shown)
VH: QVQLVQSGAEVKKPGASVKVSCKASGYTFIDFNMHWVRQAPGQRLEWMGYIYPYNGDVVYNQNFTNRVTLTVDTSSSTAYMELSSLRSEDTAVYYCAREGLGGYWGQGTLVTVSS
VL: DVQLTQSPSFLSASVGDRVTITCQASQNIDGNTYMNWYQQKPGKAPKVLIYSIFNLESGVPSRFSGSGSGTEFTLTISSLQPEDFATYYCQQSNDYPYTFGQGTKLEIK
notes: 1F5 HC-1/2B8 LC2-2
B9: hu127 (antibody, V domains shown)
VH: QVQLVQSGAEVKKPGASVKVSCKASGYTFTDYNMHWVRQAPGQGLEWMGNIYPYNGGTVYNQKFNNRVTLTVDTSSSTAYMELRSLRSDDTAVYYCAREGLGGYWGQGTLVTVSS
VL: DVQLTQSPSFLSASVGDRVTITCQASQNIDGNTYMNWYQQKPGKAPKVLIYSIFNLESGVPSRFSGSGSGTEFTLTISSLQPEDFATYYCQQSNDYPYTFGQGTKLEIK
notes: 2B8 HC1-2/2B8 LC2-2
B10: hu147 (antibody, V domains shown)
VH: QVQLVQSGAEVKKPGASVKVSCKTSGYTFTDYNMHWVRQAPGQRLEWMGYISPYNGGTAYNQKFKFRVTLTVDTSSSTAYMELSSLRSEDTAVYYCAREGLGGYWGQGTLVTVSS
VL: DIQLTQSPSFLSASVGDRVTITCKASQNIDYDGYAYLNWYQQKPGKAPKVLIYSVFNLESGVPSRFSGSGSGTEFTLTISSLQPEDFATYYCQQSNEFPYTFGQGTKLEIK
notes: 3E5 HC-1/1A2 LC2-4
B11: hu221 (antibody, V domains shown)
VH: QVQLVQSGAEVKKPGASVKVSCKASGYTFTDYNMHWVRQAPGQGLEWMGYIYPYNGHTVYNQKFRNRVTLTVDTSSSTAYMELRSLRSDDTAVYYCAREGLGGYWGQGTLVTVSS
VL: DIQLTQSPSSLSASVGDRVTITCKASQNIDYGGYSYMNWYQQKPGKAPKVLIYSVFNLESGVPSRFSGSGSGTDFTLTISSLQPEDFATYYCQQSNEAPYTFGQGTKLEIK
notes: 3H10 HC-2/3H10 LC2-2
B12: hu143 (antibody, V domains shown)
VH: QVQLVQSGAEVKKPGASVKVSCKASGYTFTDYNMHWVRQAPGQGLEWMGNIYPYNAGTVYNQKFNNRVTLTVDTSSSTAYMELSRLRSDDTAVYYCAREGLGGYWGQGTLVTVSS
VL: DIQLTQSPSSLSASVGDRVTITCKASQNIDYGGYSYMNWYQQKPGKAPKVLIYSVFNLESGVPSRFSGSGSGTDFTLTISSLQPEDFATYYCQQSNEAPYTFGQGTKLEIK
notes: 2B8 HC1-3/3H10 LC2-2
B13: hu101 (antibody, V domains shown)
VH: QVQLVQSGAEVKKPGASVKVSCKASGYTFTDYNMHWVRQAPGQRLEWMGYVYPYNGGSAYNQKFKSRVTLTVDTSSSTAYMELSSLRSEDTAVYYCAREGLGGYWGQGTLVTVSS
VL: DVQLTQSPSFLSASVGDRVTITCQASQNIDGNTYMNWYQQKPGKAPKVLIYSIFNLESGVPSRFSGSGSGTEFTLTISSLQPEDFATYYCQQSNDYPYTFGQGTKLEIK
notes: 2A2 HC-1/2B8 LC2-2
B14: hu88 (antibody, V domains shown)
VH: QVQLVQSGAEVKKPGASVKVSCKASGYTFIDFNMHWVRQAPGQRLEWMGYIYPYNADVVYNQDFTNRVTLTVDTSSSTAYMELSSLRSEDTAVYYCAREGLGGYWGQGTLVTVSS
VL: DVQLTQSPSFLSASVGDRVTITCQASQNIDGNTYMNWYQQKPGKAPKVLIYSIFNLESGVPSRFSGSGSGTEFTLTISSLQPEDFATYYCQQSNDYPYTFGQGTKLEIK
notes: 1F5 HC-5/2B8 LC2-2
B15: hu208 (antibody, V domains shown)
VH: QVQLVQSGAEVKKPGASVKVSCKASGYTFTDYNMHWVRQAPGQGLEWMGYIYPYNGHTVYNQKFRNRVTMTVDTSSSTAYMELRSLRSDDTAVYYCAKEGLGGYWGQGTLVTVSS
VL: DIQLTQSPSSLSASVGDRVTITCKASQNIDYGGYSYMNWYQQKPGKAPKVLIYSVFNLESGVPSRFSGSGSGTDFTLTISSLQPEDFATYYCQQSNEAPYTFGQGTKLEIK
notes: 3H10 HC-1/3H10 LC2-2
B16: hu10 (antibody, V domains shown)
VH: QVQLVQSGAEVKKPGASVKVSCKASGYTFTDYNMHWVRQAPGQGLEWMGYIFPYNGVAVYNRKFRSRVTLTIDTSSSTAYMELRSLRSDDTAVYYCAREGLGGYWGQGTLVTVSS
VL: DVQLTQSPSFLSASVGDRVTITCQASQNIDGNTYMNWYQQKPGKAPKVLIYSIFNLESGVPSRFSGSGSGTEFTLTISSLQPEDFATYYCQQSNDYPYTFGQGTKLEIK
notes: 1B2 HC-1/2B8 LC2-2
B17: hu140 (antibody, V domains shown)
VH: QVQLVQSGAEVKKPGASVKVSCKASGYTFTDYNMHWVRQAPGQGLEWMGNIYPYNAGTVYNQKFNNRVTLTVDTSSSTAYMELSRLRSDDTAVYYCAREGLGGYWGQGTLVTVSS
VL: DVQLTQSPSFLSASVGDRVTITCQASQNIDGNTYMNWYQQKPGKAPKVLIYSIFNLESGVPSRFSGSGSGTEFTLTISSLQPEDFATYYCQQSNDYPYTFGQGTKLEIK
notes: 2B8 HC1-3/2B8 LC2-2
B18: hu62 (antibody, V domains shown)
VH: QVQLVQSGAEVKKPGASVKVSCKASGYTFTDFNMHWVRQAPGQGLEWMGYIYPYNGDVVYNQNFTNRVTLTVDTSSSTAYMELRSLRSDDTAVYYCAREGLGGYWGQGTLVTVSS
VL: DVQLTQSPSFLSASVGDRVTITCQASQNIDGNTYMNWYQQKPGKAPKVLIYSIFNLESGVPSRFSGSGSGTEFTLTISSLQPEDFATYYCQQSNDYPYTFGQGTKLEIK
notes: 1F5 HC-3/2B8 LC2-2
B19: hu199 (antibody, V domains shown)
VH: QVQLVQSGAEVKKPGASVKVSCKASGYTFTDYNMHWVRQAPGQGLEWMGYIYPYNGHTVYNQKFRNRVTMTVDTSSSTAYMELRSLRSDDTAVYYCAKEGLGGYWGQGTLVTVSS
VL: DIQLTQSPSFLSASVGDRVTITCKASQNIDYDGYAYLNWYQQKPGKAPKVLIYSVFNLESGVPSRFSGSGSGTEFTLTISSLQPEDFATYYCQQSNEFPYTFGQGTKLEIK
notes: 3H10 HC-1/1A2 LC2-4
B20: hu23 (antibody, V domains shown)
VH: QVQLVQSGAEVKKPGASVKVSCKASGYTFTDYNMHWVRQAPGQRLEWMGYIFPYNGVAVYNRKFRSRVTLTVDTSSSTAYMELSSLRSEDTAVYYCAREGLGGYWGQGTLVTVSS
VL: DVQLTQSPSFLSASVGDRVTITCQASQNIDGNTYMNWYQQKPGKAPKVLIYSIFNLESGVPSRFSGSGSGTEFTLTISSLQPEDFATYYCQQSNDYPYTFGQGTKLEIK
notes: 1B2 HC-2/2B8 LC2-2

Biological target: T1, Biotin-huCGRPaSA
Test: ELISA, supernatant; relative to chimeric C245
Summary of the method: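 Plates coated with biotin-CGRPaSA at 1.0 μg/mL (90 min, 37°C) and blocked with 2% BSA. Humanized antibodies and chimeric C245 reference, 2.5-fold serial dilutions from 1000 ng/mL, bound 60 min at 37°C. Detection by HRP anti-human IgG (Fc), TMB 15 min, read at 450/620 nm.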

Row | Binder | Relative binding activity, % [%]
1 | B1 | 86
2 | B2 | 24
3 | B3 | 53
4 | B4 | 92
5 | B5 | 50
6 | B6 | 60
7 | B7 | 41
8 | B8 | 40
9 | B9 | 24
10 | B10 | 111
11 | B11 | 24
12 | B12 | 41
13 | B13 | 48
14 | B14 | 93
15 | B15 | 15
16 | B16 | 14
17 | B17 | 47
18 | B18 | 15
19 | B19 | 41
20 | B20 | 17
